Measured values published in the supplement of paper PMC10567573.

B1: GMCL1 (parent)
chain: RPDTGDDAAGHGFCYCAGSHKRKR
B2: CPXM2 (parent)
chain: TASTKNCMVGYDMGATRCDFTLSK

Variants of: B1
Experiment: protein stability index of a GFP-peptide fusion (GPS, HEK-293T) (PSI 1-6); higher = more stable
Conditions: c terminus: a fixed tail appended
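Note: lentivirally expressed fusions sorted by FACS into six bins by GFP to DsRed ratio, PSI derived from sequencing read proportions per bin multiplied by bin number.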

Q: For RPWTGDDAAGHGFCYCAGSHKRKR [D3W], which protein stability index is on record?
A: 3.04

Q: For RPQTGDDAAGHGFCYCAGSHKRKR [D3Q], which protein stability index is on record?
A: 2.51

Q: Which protein stability index does the source give for RPCTGDDAAGHGFCYCAGSHKRKR [D3C] here?
A: 2.97

Q: With RPFTGDDAAGHGFCYCAGSHKRKR [D3F] as the variant, how does the protein stability index read?
A: 2.76

Q: With RPGTGDDAAGHGFCYCAGSHKRKR [D3G] as the variant, how does the protein stability index read?
A: 2.19

Q: For RPVTGDDAAGHGFCYCAGSHKRKR [D3V], which protein stability index is on record?
A: 3.91

Q: Which protein stability index does the source give for RPSTGDDAAGHGFCYCAGSHKRKR [D3S] here?
A: 3.14

Q: Which protein stability index does the source give for RPPTGDDAAGHGFCYCAGSHKRKR [D3P] here?
A: 3.64

Q: Which protein stability index does the source give for RPKTGDDAAGHGFCYCAGSHKRKR [D3K] here?
A: 3.62

Q: Which protein stability index does the source give for RPMTGDDAAGHGFCYCAGSHKRKR [D3M] here?
A: 2.3

Q: With RPTTGDDAAGHGFCYCAGSHKRKR [D3T] as the variant, how does the protein stability index read?
A: 2.86

Q: For RPITGDDAAGHGFCYCAGSHKRKR [D3I], which protein stability index is on record?
A: 3.29

Q: Which protein stability index does the source give for RPETGDDAAGHGFCYCAGSHKRKR [D3E] here?
A: 2.41

Q: With RPRTGDDAAGHGFCYCAGSHKRKR [D3R] as the variant, how does the protein stability index read?
A: 3.19

Q: Which protein stability index does the source give for RPHTGDDAAGHGFCYCAGSHKRKR [D3H] here?
A: 3.4

Q: Which protein stability index does the source give for RPLTGDDAAGHGFCYCAGSHKRKR [D3L] here?
A: 3.14

Q: Which protein stability index does the source give for RPATGDDAAGHGFCYCAGSHKRKR [D3A] here?
A: 2.62

Q: For RPNTGDDAAGHGFCYCAGSHKRKR [D3N], which protein stability index is on record?
A: 3.31

Q: Which protein stability index does the source give for RPYTGDDAAGHGFCYCAGSHKRKR [D3Y] here?
A: 3.15

Variants of: B2
Experiment: as above
Conditions: c terminus: a fixed tail appended

Q: For TASTKNCMVGYDMGATRCDFTLFK [S23F], which protein stability index is on record?
A: 1.55

Q: With TASTKNCMVGYDMGATRCDFTLYK [S23Y] as the variant, how does the protein stability index read?
A: 2.01

Q: For TASTKNCMVGYDMGATRCDFTLGK [S23G], which protein stability index is on record?
A: 2.45

Q: For TASTKNCMVGYDMGATRCDFTLEK [S23E], which protein stability index is on record?
A: 2.45

Q: With TASTKNCMVGYDMGATRCDFTLLK [S23L] as the variant, how does the protein stability index read?
A: 2.67

Q: For TASTKNCMVGYDMGATRCDFTLQK [S23Q], which protein stability index is on record?
A: 2.26

Q: With TASTKNCMVGYDMGATRCDFTLNK [S23N] as the variant, how does the protein stability index read?
A: 2.6

Q: Which protein stability index does the source give for TASTKNCMVGYDMGATRCDFTLRK [S23R] here?
A: 3.34

Q: Which protein stability index does the source give for TASTKNCMVGYDMGATRCDFTLHK [S23H] here?
A: 2.2

Q: With TASTKNCMVGYDMGATRCDFTLDK [S23D] as the variant, how does the protein stability index read?
A: 2.55

Q: Which protein stability index does the source give for TASTKNCMVGYDMGATRCDFTLIK [S23I] here?
A: 1.89

Q: Which protein stability index does the source give for TASTKNCMVGYDMGATRCDFTLKK [S23K] here?
A: 2.78

Q: With TASTKNCMVGYDMGATRCDFTLVK [S23V] as the variant, how does the protein stability index read?
A: 2.3

Q: For TASTKNCMVGYDMGATRCDFTLCK [S23C], which protein stability index is on record?
A: 1.46

Q: For TASTKNCMVGYDMGATRCDFTLPK [S23P], which protein stability index is on record?
A: 2.59

Q: Which protein stability index does the source give for TASTKNCMVGYDMGATRCDFTLMK [S23M] here?
A: 2

Q: Which protein stability index does the source give for TASTKNCMVGYDMGATRCDFTLAK [S23A] here?
A: 3.47

Q: For TASTKNCMVGYDMGATRCDFTLWK [S23W], which protein stability index is on record?
A: 1.86

Q: With TASTKNCMVGYDMGATRCDFTLTK [S23T] as the variant, how does the protein stability index read?
A: 1.94

Q: Which protein stability index does the source give for TASTKNCMVGYDMGATRCDFTGSK [L22G] here?
A: 3.48

Q: For TASTKNCMVGYDMGATRCDFTESK [L22E], which protein stability index is on record?
A: 3.07

Q: With TASTKNCMVGYDMGATRCDFTMSK [L22M] as the variant, how does the protein stability index read?
A: 2.39

Q: For TASTKNCMVGYDMGATRCDFTCSK [L22C], which protein stability index is on record?
A: 2.42

Q: With TASTKNCMVGYDMGATRCDFTWSK [L22W] as the variant, how does the protein stability index read?
A: 1.74

Q: Which protein stability index does the source give for TASTKNCMVGYDMGATRCDFTISK [L22I] here?
A: 1.88

Q: Which protein stability index does the source give for TASTKNCMVGYDMGATRCDFTYSK [L22Y] here?
A: 2.26

Q: Which protein stability index does the source give for TASTKNCMVGYDMGATRCDFTKSK [L22K] here?
A: 3.36

Q: For TASTKNCMVGYDMGATRCDFTSSK [L22S], which protein stability index is on record?
A: 2.41

Q: For TASTKNCMVGYDMGATRCDFTRSK [L22R], which protein stability index is on record?
A: 2.35

Q: With TASTKNCMVGYDMGATRCDFTDSK [L22D] as the variant, how does the protein stability index read?
A: 3.58

Q: With TASTKNCMVGYDMGATRCDFTFSK [L22F] as the variant, how does the protein stability index read?
A: 2.12

Q: With TASTKNCMVGYDMGATRCDFTASK [L22A] as the variant, how does the protein stability index read?
A: 2.64

Q: With TASTKNCMVGYDMGATRCDFTPSK [L22P] as the variant, how does the protein stability index read?
A: 2.48

Q: For TASTKNCMVGYDMGATRCDFTNSK [L22N], which protein stability index is on record?
A: 3.41

Q: For TASTKNCMVGYDMGATRCDFTQSK [L22Q], which protein stability index is on record?
A: 2.96

Q: With TASTKNCMVGYDMGATRCDFTTSK [L22T] as the variant, how does the protein stability index read?
A: 3.23

Q: Which protein stability index does the source give for TASTKNCMVGYDMGATRCDFTVSK [L22V] here?
A: 2.52

Q: For TASTKNCMVGYDMGATRCDFTHSK [L22H], which protein stability index is on record?
A: 3.06

Q: With TASTKNCMVGYDMGATRCDFWLSK [T21W] as the variant, how does the protein stability index read?
A: 1.67

Q: With TASTKNCMVGYDMGATRCDFILSK [T21I] as the variant, how does the protein stability index read?
A: 2.02

Q: For TASTKNCMVGYDMGATRCDFKLSK [T21K], which protein stability index is on record?
A: 3.35

Q: With TASTKNCMVGYDMGATRCDFPLSK [T21P] as the variant, how does the protein stability index read?
A: 2.71

Q: Which protein stability index does the source give for TASTKNCMVGYDMGATRCDFYLSK [T21Y] here?
A: 1.91

Q: Which protein stability index does the source give for TASTKNCMVGYDMGATRCDFSLSK [T21S] here?
A: 2.21

Q: Which protein stability index does the source give for TASTKNCMVGYDMGATRCDFRLSK [T21R] here?
A: 2.89

Q: For TASTKNCMVGYDMGATRCDFELSK [T21E], which protein stability index is on record?
A: 3.16

Q: Which protein stability index does the source give for TASTKNCMVGYDMGATRCDFCLSK [T21C] here?
A: 1.57

Q: Which protein stability index does the source give for TASTKNCMVGYDMGATRCDFQLSK [T21Q] here?
A: 3.15

Q: For TASTKNCMVGYDMGATRCDFGLSK [T21G], which protein stability index is on record?
A: 2.48

Q: Which protein stability index does the source give for TASTKNCMVGYDMGATRCDFNLSK [T21N] here?
A: 3.06

Q: For TASTKNCMVGYDMGATRCDFHLSK [T21H], which protein stability index is on record?
A: 3.16

Q: Which protein stability index does the source give for TASTKNCMVGYDMGATRCDFLLSK [T21L] here?
A: 2.52

Q: With TASTKNCMVGYDMGATRCDFFLSK [T21F] as the variant, how does the protein stability index read?
A: 2.11

Q: Which protein stability index does the source give for TASTKNCMVGYDMGATRCDFDLSK [T21D] here?
A: 2.52

Q: Which protein stability index does the source give for TASTKNCMVGYDMGATRCDFVLSK [T21V] here?
A: 2.48

Q: For TASTKNCMVGYDMGATRCDFMLSK [T21M], which protein stability index is on record?
A: 1.95

Q: For TASTKNCMVGYDMGATRCDFALSK [T21A], which protein stability index is on record?
A: 2.37

Q: With TASTKNCMVGYDMGATRCDFTLSV [K24V] as the variant, how does the protein stability index read?
A: 2.78

Q: For TASTKNCMVGYDMGATRCDFTLSM [K24M], which protein stability index is on record?
A: 2.85

Q: Which protein stability index does the source give for TASTKNCMVGYDMGATRCDFTLSD [K24D] here?
A: 2.37

Q: Which protein stability index does the source give for TASTKNCMVGYDMGATRCDFTLSR [K24R] here?
A: 1.56

Q: With TASTKNCMVGYDMGATRCDFTLSA [K24A] as the variant, how does the protein stability index read?
A: 2.43

Q: With TASTKNCMVGYDMGATRCDFTLSH [K24H] as the variant, how does the protein stability index read?
A: 2.87

Q: For TASTKNCMVGYDMGATRCDFTLSG [K24G], which protein stability index is on record?
A: 1.78

Q: With TASTKNCMVGYDMGATRCDFTLSC [K24C] as the variant, how does the protein stability index read?
A: 2.38

Q: Which protein stability index does the source give for TASTKNCMVGYDMGATRCDFTLSE [K24E] here?
A: 2.62

Q: Which protein stability index does the source give for TASTKNCMVGYDMGATRCDFTLSL [K24L] here?
A: 1.52

Q: With TASTKNCMVGYDMGATRCDFTLSF [K24F] as the variant, how does the protein stability index read?
A: 4.01

Q: Which protein stability index does the source give for TASTKNCMVGYDMGATRCDFTLSY [K24Y] here?
A: 2.73

Q: For TASTKNCMVGYDMGATRCDFTLSQ [K24Q], which protein stability index is on record?
A: 1.82

Q: For TASTKNCMVGYDMGATRCDFTLSI [K24I], which protein stability index is on record?
A: 3.76

Q: Which protein stability index does the source give for TASTKNCMVGYDMGATRCDFTLST [K24T] here?
A: 1.62

Q: Which protein stability index does the source give for TASTKNCMVGYDMGATRCDFTLSS [K24S] here?
A: 2.22

Q: With TASTKNCMVGYDMGATRCDFTLSP [K24P] as the variant, how does the protein stability index read?
A: 2.35

Q: With TASTKNCMVGYDMGATRCDFTLSN [K24N] as the variant, how does the protein stability index read?
A: 2.03
